# Laboratory results: patent US20230192834A1
# T1: TGFβ3 (R&D Systems)
# T1 sequence (P10600 301-412, species assumed, looked up): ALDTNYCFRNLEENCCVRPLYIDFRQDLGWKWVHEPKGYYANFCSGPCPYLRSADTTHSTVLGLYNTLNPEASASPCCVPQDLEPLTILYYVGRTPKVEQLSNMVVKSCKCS
# T2: TGFβ2 (R&D Systems)
# T2 sequence (P61812 303-414, species assumed, looked up): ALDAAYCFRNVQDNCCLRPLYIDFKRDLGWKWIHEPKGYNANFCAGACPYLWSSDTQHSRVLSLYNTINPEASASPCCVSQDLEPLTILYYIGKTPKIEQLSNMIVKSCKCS
# How the values were obtained:
# TGFβ3 (R&D Systems) [1] = target: T1, TGFβ3 (R&D Systems); experiment: SPR (Biacore T200), TGFβ amine-coupled to chip, 1:1 fit
# TGFβ1 (R&D Systems) [2] = experiment: as above
# Chain of TGFβ1 (R&D Systems) (P01137 279-390): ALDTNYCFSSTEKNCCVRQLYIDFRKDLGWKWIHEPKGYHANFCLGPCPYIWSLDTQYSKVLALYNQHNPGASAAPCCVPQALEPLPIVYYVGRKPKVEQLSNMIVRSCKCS
# TGFβ2 (R&D Systems) [3] = target: T2, TGFβ2 (R&D Systems); experiment: as above
# TGFβ3 (R&D Systems) [4] = target: T1, TGFβ3 (R&D Systems); experiment: cell-based or functional assay
# TGFβ1 (R&D Systems) [5] = experiment: cell-based or functional assay
# TGFβ2 (R&D Systems) [6] = target: T2, TGFβ2 (R&D Systems); experiment: cell-based or functional assay
Binder,Kd (TGFβ3 (R&D Systems) [1]),Kd (TGFβ1 (R&D Systems) [2]),Kd (TGFβ2 (R&D Systems) [3]),"TGFb3 IC50 (SMAD3 phosphorylation in CMVICs, AlphaLISA) (TGFβ3 (R&D Systems) [4])","TGFb1 IC50 (SMAD3 phosphorylation in CMVICs, AlphaLISA) (TGFβ1 (R&D Systems) [5])","TGFb2 IC50 (SMAD3 phosphorylation in CMVICs, AlphaLISA) (TGFβ2 (R&D Systems) [6])"
"Felinized anti-TGFβ1,2,3 antibody VH2.1 - VL8 (antibody, V domains shown) VH: QVLLVQSGADVRKPGASVKIFCKASGYTFTSNVISWVRQTPAQGFEWMGGVIPIVDIANYAQRFKGRLVLTADTSTNTAYMELRSLKSADTAVYYCASTLGLVLDAMDYWGQGSLVTVSS VL: DIVMTQSPGSLAGSPGQQVTMNCRASQSLGSSYLAWYQQKPGQHPELLIYGASSRAPGVPDRFSGSGSGTDFTLTISNLQAEDVANYYCQQYADSPITFGQGTKLEIKR",1.06 nM,3.31 nM,3.41 nM,0.124 µg/mL,0.266 µg/mL,0.031 µg/mL
"Felinized anti-TGFβ1,2,3 antibody VH2.2 - VL7 (antibody, V domains shown) VH: QVLLVQSGADVRKPGASVKIFCKASGYTFSSNVMHWVRQTPAQGFEWMGSVIPIVDIATYARRFQGRLVLTADTSTNTAYMELRSLKSADTAVYYCARTLGLVLDAMDYWGQGSLVTVSS VL: DIVLTQPPSLSVNLGQTARITCRASQSLGSSYLAWYQQKPGQAPKLVTYGASSRAPGIPDRFSGTNSGITATLTISGARAEDEADYYCQQYADSPITFGQGTKLEIKR",3.52 nM,4.95 nM,2.16 nM,2.2 µg/mL,4.59 µg/mL,20.6 µg/mL
"Caninized anti-TGFβ1,2,3 antibody VH3.1 - VL3 (antibody, V domains shown) VH: DVQLVESGGDLVKPGGSLRLTCVASGYTFSSNVMHWVRQAPGKGLQWVAYVIPIVDIAYYADSVKGRFTISIDNSKNTLYLQMNSLKTEDTATYYCARTLGLVLDAMDYWGQGTLVTVSS VL: EIVMTQSPASLSLSQEEKVTITCRASQSLGSSYLAWYQQKPGQAPKLLIYGASSRAPGVPSRFSGSGSGTDFSFTISSLEPEDVAVYYCQQYADSPITFGQGTKLEIKR",0.981 nM,7.52 nM,3.91 nM,0.034 µg/mL,0.134 µg/mL,0.954 µg/mL
"Felinized anti-TGFβ1,2,3 antibody VH3.2 - VL8 (antibody, V domains shown) VH: DVQLVESGGDLVKPGGSLRLTCVASGYTFSSNVMHWVRQAPGKGLQWVAYVIPIVDIAYYADSVKGRFTISIDNSKNTLYLQMNSLKTEDTATYYCARTLGLVLDAMDYWGQGTLVTVSS VL: DIVMTQSPGSLAGSPGQQVTMNCRASQSLGSSYLAWYQQKPGQHPELLIYGASSRAPGVPDRFSGSGSGTDFTLTISNLQAEDVANYYCQQYADSPITFGQGTKLEIKR",0.0466 nM,0.971 nM,2.13 nM,0.008 µg/mL,0.072 µg/mL,0.037 µg/mL
"Felinized anti-TGFβ1,2,3 antibody VH3.2 - VL7 (antibody, V domains shown) VH: DVQLVESGGDLVKPGGSLRLTCVASGYTFSSNVMHWVRQAPGKGLQWVAYVIPIVDIAYYADSVKGRFTISIDNSKNTLYLQMNSLKTEDTATYYCARTLGLVLDAMDYWGQGTLVTVSS VL: DIVLTQPPSLSVNLGQTARITCRASQSLGSSYLAWYQQKPGQAPKLVTYGASSRAPGIPDRFSGTNSGITATLTISGARAEDEADYYCQQYADSPITFGQGTKLEIKR",0.434 nM,0.857 nM,0.589 nM,0.018 µg/mL,0.139 µg/mL,0.048 µg/mL
"Caninized anti-TGFβ1,2,3 antibody VH3.6 - VL2 (antibody, V domains shown) VH: EVQLVQSAAEVKKPGASVKVSCKTSGYIFISNVISWVRQAPGQGLEWMGGVIPIVDIANYAQRFKGRVTITADESTSTTYMELSSLRSEDTAVYYCASTLGLVLDAMDYWGQGTLVTVSS VL: ETVLTQSPGTLSLSPGERATLSCRASQSLGSSYLAWYQQKPGQAPRLLIYGASSRAPGVPARFSGSGSGTDFTLTISSLEPEDFAVYYCQQYADSPITFGQGTKLEIKR",1.49 nM,4.39 nM,3.42 nM,0.203 µg/mL,0.057 µg/mL,0.459 µg/mL
"human: feline GC1008 chimera felchimGC1008 (antibody, V domains shown) VH: QVQLVQSGAEVKKPGSSVKVSCTASGYTPSSNVISNVRQAPGQGLENNGGVIPIVDIANYAQRPKGRVTITADESTSTTYHELSSLRSEDTAVYYCASTLGLVLDAMDYHGQGTLVTVSS VL: ETVLTQSPGTLSLSPGERATLSCRASQSLGSSYLAWYQQKPGQAPRLLIYGASSRAPGIPDRFSGSGSGTDFTLTISRLEPEDFAVYYCQQYADSPITFGQGTRLEIKR",2.35 nM,2.58 nM,1.88 nM,0.053 µg/mL,0.176 µg/mL,0.167 µg/mL
"Caninized anti-TGFβ1,2,3 antibody VH4.11 - VL2 (antibody, V domains shown) VH: QVQLVQSGAEVKKPGSSVKVSCKASGYTFSSNVISWVRQAPGKGLQWVGGVIPIVDIANYAQRFKGRVTLTADTSTNTVYMELSNLRTEDTAVYYCARTLGLVLDAMDYWGQGTLVTVSS VL: ETVLTQSPGTLSLSPGERATLSCRASQSLGSSYLAWYQQKPGQAPRLLIYGASSRAPGVPARFSGSGSGTDFTLTISSLEPEDFAVYYCQQYADSPITFGQGTKLEIKR",2.1 nM,4.98 nM,3.77 nM,0.375 µg/mL,0.164 µg/mL,8.48 µg/mL
"Caninized anti-TGFβ1,2,3 antibody VH4.5 - VL2 (ZTS-207) (antibody, V domains shown) VH: EVQLVESGGDLVKPAGSLRLSCVASGYTFSSNVMSWVRQAPGKGLQWVGYVIPIVDIANYADAVKGRFTISRDNAKNTLYLQMNSLRVEDTAVYYCTRTLGLVLDAMDYWGQGTLVTVSS VL: ETVLTQSPGTLSLSPGERATLSCRASQSLGSSYLAWYQQKPGQAPRLLIYGASSRAPGVPARFSGSGSGTDFTLTISSLEPEDFAVYYCQQYADSPITFGQGTKLEIKR",0.43 nM,2.3 nM,1.4 nM,0.02 µg/mL,0.06 µg/mL,0.285 µg/mL

# Other lines, results leading:
Kd (TGFβ3 (R&D Systems) [1]),Kd (TGFβ1 (R&D Systems) [2]),Kd (TGFβ2 (R&D Systems) [3]),"TGFb3 IC50 (SMAD3 phosphorylation in CMVICs, AlphaLISA) (TGFβ3 (R&D Systems) [4])","TGFb1 IC50 (SMAD3 phosphorylation in CMVICs, AlphaLISA) (TGFβ1 (R&D Systems) [5])","TGFb2 IC50 (SMAD3 phosphorylation in CMVICs, AlphaLISA) (TGFβ2 (R&D Systems) [6])",Binder
2.6 nM,2.89 nM,1.91 nM,0.132 µg/mL,0.597 µg/mL,0.277 µg/mL,"Felinized anti-TGFβ1,2,3 antibody VH2.1 - VL3 (antibody, V domains shown) VH: QVLLVQSGADVRKPGASVKIFCKASGYTFTSNVISWVRQTPAQGFEWMGGVIPIVDIANYAQRFKGRLVLTADTSTNTAYMELRSLKSADTAVYYCASTLGLVLDAMDYWGQGSLVTVSS VL: EIQMTQSPSSLSASPGDRVTITCRASQSLGSSYLAWYQQKPGKVPKLLIYGASSRAPGVPSRFSGSGSGTDFTLTISSLEPEDAATYYCQQYADSPITFGQGTKLEIKR"
3.57 nM,3.54 nM,2.99 nM,0.014 µg/mL,0.425 µg/mL,0.223 µg/mL,"Felinized anti-TGFβ1,2,3 antibody VH6.1 - VL3 (antibody, V domains shown) VH: QVLLVQSGAEVRTPGASVKIFCKASGYGFTSNVISWVRQSPAQGLEWMGGVIPIVDIANYAQRFKGRLTLTADTSTDTAYMELSSLRSADTAMYYCASTLGLVLDAMDYWGQGTLVTVSS VL: EIQMTQSPSSLSASPGDRVTITCRASQSLGSSYLAWYQQKPGKVPKLLIYGASSRAPGVPSRFSGSGSGTDFTLTISSLEPEDAATYYCQQYADSPITFGQGTKLEIKR"
0.635 nM,3.07 nM,1.94 nM,0.204 µg/mL,1.36 µg/mL,2.67 µg/mL,"Felinized anti-TGFβ1,2,3 antibody VH3.8 - VL7 (antibody, V domains shown) VH: QVQLVQSGAEVKKPGSSVKVSCKASGYTFSSNVISWVRQAPGKGLQWVAGVIPIVDIANYAQRFKGRFTISIDNSKNTLYLQMNSLKTEDTATYYCASTLGLVLDAMDYWGQGTLVTVSS VL: DIVLTQPPSLSVNLGQTARITCRASQSLGSSYLAWYQQKPGQAPKLVTYGASSRAPGIPDRFSGTNSGITATLTISGARAEDEADYYCQQYADSPITFGQGTKLEIKR"
0.144 nM,0.66 nM,0.751 nM,0.023 µg/mL,0.132 µg/mL,0.14 µg/mL,"Felinized anti-TGFβ1,2,3 antibody VH3.2 - VL3 (antibody, V domains shown) VH: DVQLVESGGDLVKPGGSLRLTCVASGYTFSSNVMHWVRQAPGKGLQWVAYVIPIVDIAYYADSVKGRFTISIDNSKNTLYLQMNSLKTEDTATYYCARTLGLVLDAMDYWGQGTLVTVSS VL: EIQMTQSPSSLSASPGDRVTITCRASQSLGSSYLAWYQQKPGKVPKLLIYGASSRAPGVPSRFSGSGSGTDFTLTISSLEPEDAATYYCQQYADSPITFGQGTKLEIKR"
1.91 nM,4.37 nM,3.56 nM,0.981 µg/mL,0.083 µg/mL,9.41 µg/mL,"Caninized anti-TGFβ1,2,3 antibody VH3.5 - VL2 (antibody, V domains shown) VH: EVQLVQSAAEVKKPGASVKVSCKTSGYIFISNVISWVQQAPGAGLEWMGGVIPIVDIANYAQRFKGRVTLTADTSTNTVYMELSNLRTEDTAVYYCASTLGLVLDAMDYWGQGTLVTVSS VL: ETVLTQSPGTLSLSPGERATLSCRASQSLGSSYLAWYQQKPGQAPRLLIYGASSRAPGVPARFSGSGSGTDFTLTISSLEPEDFAVYYCQQYADSPITFGQGTKLEIKR"
1.67 nM,3.68 nM,2.6 nM,0.056 µg/mL,0.019 µg/mL,0.691 µg/mL,"Caninized anti-TGFβ1,2,3 antibody VH5.6 - VL2 (antibody, V domains shown) VH: EVQLVESGGDLVKPGGSLRLSCVASGFTFSSNVISWVRQAPGQGLEWMGGVIPIVDIANYAQRFKGRVTITADESTSTTYMELSSLRSEDTAVYYCASTLGLVLDAMDYWGQGTLVTVSS VL: ETVLTQSPGTLSLSPGERATLSCRASQSLGSSYLAWYQQKPGQAPRLLIYGASSRAPGVPARFSGSGSGTDFTLTISSLEPEDFAVYYCQQYADSPITFGQGTKLEIKR"
